Results taken from publication PMC6265462.

Target: T1, Pho7-DBD (279-339) (Schizosaccharomyces pombe, UniProt O13658 279-339)
T1 sequence: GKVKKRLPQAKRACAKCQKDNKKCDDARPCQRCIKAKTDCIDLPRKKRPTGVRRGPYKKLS
Experiment: crystal structure

B1: tgp1 crystal duplex (dsDNA)
DNA 1: TCCTTCGGACATTCAAATCA
DNA 2: GATTTGAATGTCCGAAGGAT
binding result: binds
